Measured values from patent US12692294B2, “Engineered NRG-1 variants with improved selectivity toward ErbB4 but not against ErbB3” (Amgen Inc., priority 2021, dated 2026).
Several values for one entry are separate records, joined by “and”; a condition that tells them apart may be missing. Equal entries are not always repeated.

Columns and labels:
ErbB4 = molecular target: T1, ErbB4 (Rattus norvegicus, UniProt Q62956); assay: In vitro phosphorylation of Akt in neonatal rat cardiomyocytes; format: cell-based; conditions: for EC50: Akt (Serine 473) phosphorylation, neonatal rat cardiomyocytes, 15 minutes treatment, read-out: Cardiomyocyte (CM) (ErbB4) Avg EC50; for Selectivity SC/CM: ratio of EC50s Schwann cells/cardiomyocytes; for CM % Agonism AVG: top value of the Akt phosphorylation data points in cardiomyocytes, wild-type control 100
T1 construct: forming the ErbB2/ErbB4 complex in cardiomyocytes and the ErbB2/ErbB3 complex in Schwann cells; endogenous in cells; host or cells: primary neonatal rat cardiomyocytes (Sprague Dawley pups, 0 to 4 days old)
Method: (§1) In Vitro Phosphorylation of Akt in Neonatal Rat Cardiomyocytes and Rat Schwann Cells by Neuregulin Variants
(§2) Specificity of neuregulin variants towards cardiomyocytes (ErbB4) versus Schwann cells (ErbB3) was tested by measuring Akt activity generated by formation of the ErbB2/ErbB4 and ErbB2/ErbB3 complexes. Upon activation by neuregulin, the ErbB4 and ErbB3 receptors dimerize preferentially with the ErbB2 co-receptor, forming the ErbB2/ErbB4 complex in cardiomyocytes and the ErbB2/ErbB3 complex in Schwann cells, both of which signal through the Akt pathway. Neonatal rat cardiomyocytes were isolated from hearts of Sprague Dawley rat pups at 0 to 4 days old according to manufacturer's protocol using the Neomyt kit and plated on Surecoat plates in NS media containing serum (all from Cellultron Life Technologies, Baltimore, MD). Rat Schwann cells were plated in Poly-D-Lysine coated plates with Dulbecco's modified Eagle's media (DMEM) supplemented with fetal bovine serum (Thermo Fisher) and forskolin (Millipore Sigma).
(§3) After a 24-hour incubation in a humidified incubator maintained at 37° C. and 5% CO2, cardiomyocytes and Schwann cells were washed with serum free media and incubated an additional 16 hours in DMEM supplemented with bovine serum albumin (Sigma). Both cell lines were then treated with titrations of the neuregulin variant molecules for 15 minutes, upon which cells were lysed in lysis buffer (Meso Scale Discovery (MSD)). For detection of Akt phosphorylation, lysates were added to the Multi-Spot 96-Well 4-Spot Phospho (Serine 473)/Total Akt plates (MSD), incubated according to the manufacturer's protocol and read in the SECTOR Imager 6000 (MSD). For both cell assays, the percent phosphorylation of Akt was calculated by multiplying the phospho Akt signal by 2, then dividing by the phospho Akt signal added to the total Akt signal and then multiplying by 100. The phosphorylation of Akt data points were fitted using a log (agonist) versus response, variable slope (4 parameters) analysis in GraphPad Prism to generate EC50 curves. The CM % agonism reflect the top value of the data points.

ErbB3 = molecular target: T2, ErbB3 (Rattus norvegicus, UniProt Q62799); assay: In vitro phosphorylation of Akt in rat Schwann cells; format: cell-based; conditions: Akt (Serine 473) phosphorylation, 15 minutes treatment, read-out: Schwann cells (SC) (ErbB3) Avg EC50
T2 construct: forming the ErbB2/ErbB4 complex in cardiomyocytes and the ErbB2/ErbB3 complex in Schwann cells; endogenous in cells; host or cells: rat Schwann cells
Method: as §1, §2, §3

T1 sequence (Q62956 26-1308): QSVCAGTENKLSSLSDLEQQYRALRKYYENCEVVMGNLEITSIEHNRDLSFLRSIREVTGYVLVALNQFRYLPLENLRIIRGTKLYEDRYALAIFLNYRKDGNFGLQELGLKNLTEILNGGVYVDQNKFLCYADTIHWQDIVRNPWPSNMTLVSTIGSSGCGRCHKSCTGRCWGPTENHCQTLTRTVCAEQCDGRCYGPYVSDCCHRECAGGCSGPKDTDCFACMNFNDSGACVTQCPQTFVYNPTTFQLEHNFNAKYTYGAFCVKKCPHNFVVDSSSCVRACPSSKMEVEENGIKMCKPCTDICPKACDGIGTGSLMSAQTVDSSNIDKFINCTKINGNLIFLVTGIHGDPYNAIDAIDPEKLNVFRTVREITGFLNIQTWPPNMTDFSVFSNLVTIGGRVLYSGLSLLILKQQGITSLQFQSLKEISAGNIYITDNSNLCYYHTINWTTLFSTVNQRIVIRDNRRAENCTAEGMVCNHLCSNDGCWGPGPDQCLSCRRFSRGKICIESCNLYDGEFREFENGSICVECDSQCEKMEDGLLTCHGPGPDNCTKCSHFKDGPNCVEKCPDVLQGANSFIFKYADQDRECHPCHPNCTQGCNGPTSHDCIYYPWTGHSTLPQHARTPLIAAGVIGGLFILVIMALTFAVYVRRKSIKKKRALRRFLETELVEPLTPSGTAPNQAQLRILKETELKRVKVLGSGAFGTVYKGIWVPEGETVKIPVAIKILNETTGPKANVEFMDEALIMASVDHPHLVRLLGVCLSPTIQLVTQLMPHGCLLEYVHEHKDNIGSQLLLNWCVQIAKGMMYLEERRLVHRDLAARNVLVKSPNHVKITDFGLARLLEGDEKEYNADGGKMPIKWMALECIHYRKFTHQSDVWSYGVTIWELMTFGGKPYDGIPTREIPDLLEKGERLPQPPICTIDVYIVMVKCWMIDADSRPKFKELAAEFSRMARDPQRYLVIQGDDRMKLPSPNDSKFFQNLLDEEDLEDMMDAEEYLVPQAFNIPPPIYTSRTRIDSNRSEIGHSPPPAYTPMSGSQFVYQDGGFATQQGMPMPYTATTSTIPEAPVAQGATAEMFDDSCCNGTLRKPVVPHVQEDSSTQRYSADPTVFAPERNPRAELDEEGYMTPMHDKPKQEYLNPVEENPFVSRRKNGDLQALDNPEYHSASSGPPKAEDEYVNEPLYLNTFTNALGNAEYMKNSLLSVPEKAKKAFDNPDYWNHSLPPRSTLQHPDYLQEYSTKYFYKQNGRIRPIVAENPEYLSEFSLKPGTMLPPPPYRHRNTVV
T1 sequence (P06494 23-1257 partner): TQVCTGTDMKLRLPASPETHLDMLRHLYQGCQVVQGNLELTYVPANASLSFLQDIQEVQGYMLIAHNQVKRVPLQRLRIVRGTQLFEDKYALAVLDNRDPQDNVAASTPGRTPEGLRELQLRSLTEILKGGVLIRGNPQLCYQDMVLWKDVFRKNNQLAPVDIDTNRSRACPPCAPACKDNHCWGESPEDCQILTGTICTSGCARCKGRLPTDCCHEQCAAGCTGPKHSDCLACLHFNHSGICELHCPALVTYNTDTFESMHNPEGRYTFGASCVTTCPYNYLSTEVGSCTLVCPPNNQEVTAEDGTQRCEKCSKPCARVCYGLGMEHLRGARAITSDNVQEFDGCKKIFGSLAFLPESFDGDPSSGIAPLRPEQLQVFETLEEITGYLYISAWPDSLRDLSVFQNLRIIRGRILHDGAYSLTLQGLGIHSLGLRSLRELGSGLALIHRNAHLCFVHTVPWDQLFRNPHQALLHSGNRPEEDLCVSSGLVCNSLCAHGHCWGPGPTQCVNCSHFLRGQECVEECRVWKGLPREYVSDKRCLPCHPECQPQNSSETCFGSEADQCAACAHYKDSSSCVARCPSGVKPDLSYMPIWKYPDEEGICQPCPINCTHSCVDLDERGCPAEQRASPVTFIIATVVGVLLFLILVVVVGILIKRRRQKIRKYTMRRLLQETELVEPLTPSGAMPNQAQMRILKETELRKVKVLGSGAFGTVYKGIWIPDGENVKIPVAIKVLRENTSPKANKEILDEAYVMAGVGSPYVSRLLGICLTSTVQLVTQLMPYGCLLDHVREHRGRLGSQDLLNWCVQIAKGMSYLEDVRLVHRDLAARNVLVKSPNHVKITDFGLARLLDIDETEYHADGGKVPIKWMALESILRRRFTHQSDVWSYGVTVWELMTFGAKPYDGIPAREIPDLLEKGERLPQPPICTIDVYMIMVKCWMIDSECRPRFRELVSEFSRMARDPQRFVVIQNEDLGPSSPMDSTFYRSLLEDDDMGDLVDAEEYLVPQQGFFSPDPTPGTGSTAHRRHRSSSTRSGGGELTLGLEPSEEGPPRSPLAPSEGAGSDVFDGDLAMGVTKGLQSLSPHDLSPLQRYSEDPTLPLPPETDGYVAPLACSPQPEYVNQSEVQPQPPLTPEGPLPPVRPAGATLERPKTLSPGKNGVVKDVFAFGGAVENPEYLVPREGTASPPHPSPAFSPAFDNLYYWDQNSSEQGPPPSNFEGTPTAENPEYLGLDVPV
T2 sequence (Q62799 20-1339): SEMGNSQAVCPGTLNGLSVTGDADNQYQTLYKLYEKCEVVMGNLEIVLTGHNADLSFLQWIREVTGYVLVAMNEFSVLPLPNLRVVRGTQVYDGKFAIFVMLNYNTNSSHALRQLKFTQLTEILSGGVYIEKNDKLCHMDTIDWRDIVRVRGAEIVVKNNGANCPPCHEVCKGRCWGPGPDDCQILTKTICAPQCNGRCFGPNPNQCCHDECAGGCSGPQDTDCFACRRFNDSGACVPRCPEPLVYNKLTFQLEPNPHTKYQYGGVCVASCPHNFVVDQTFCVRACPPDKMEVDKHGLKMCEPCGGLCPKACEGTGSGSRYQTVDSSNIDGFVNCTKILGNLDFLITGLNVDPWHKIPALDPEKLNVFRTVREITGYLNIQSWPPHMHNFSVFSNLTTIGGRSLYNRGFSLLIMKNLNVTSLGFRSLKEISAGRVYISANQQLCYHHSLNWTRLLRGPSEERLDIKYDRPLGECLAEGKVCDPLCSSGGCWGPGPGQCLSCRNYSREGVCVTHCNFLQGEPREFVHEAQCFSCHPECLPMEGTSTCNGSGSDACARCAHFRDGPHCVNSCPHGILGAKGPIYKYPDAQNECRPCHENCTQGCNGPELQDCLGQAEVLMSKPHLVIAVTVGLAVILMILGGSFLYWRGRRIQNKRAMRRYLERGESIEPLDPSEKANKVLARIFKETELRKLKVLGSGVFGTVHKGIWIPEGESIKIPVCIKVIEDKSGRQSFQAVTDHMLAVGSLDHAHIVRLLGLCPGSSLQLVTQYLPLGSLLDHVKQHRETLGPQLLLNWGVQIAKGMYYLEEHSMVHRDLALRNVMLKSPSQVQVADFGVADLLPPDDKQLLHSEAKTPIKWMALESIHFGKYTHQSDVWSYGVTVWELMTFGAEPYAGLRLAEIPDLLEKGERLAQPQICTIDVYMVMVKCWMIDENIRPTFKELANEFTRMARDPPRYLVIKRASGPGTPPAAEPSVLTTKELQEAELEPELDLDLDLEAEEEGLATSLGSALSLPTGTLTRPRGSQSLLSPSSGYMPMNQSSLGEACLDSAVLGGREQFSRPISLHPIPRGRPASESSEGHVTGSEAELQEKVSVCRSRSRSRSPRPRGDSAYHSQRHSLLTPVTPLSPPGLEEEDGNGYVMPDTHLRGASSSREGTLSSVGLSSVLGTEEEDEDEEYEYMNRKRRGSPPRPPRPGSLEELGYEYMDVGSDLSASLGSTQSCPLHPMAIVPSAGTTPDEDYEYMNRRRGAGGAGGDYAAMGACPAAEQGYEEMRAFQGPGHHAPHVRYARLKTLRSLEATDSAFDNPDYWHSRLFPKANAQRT
T2 sequence (P06494 23-1257 partner): as the sequence (P06494 23-1257 partner) above

Row | Substance | EC50 (ErbB4) | Selectivity SC/CM (ErbB4) | CM % Agonism AVG (ErbB4) | EC50 (ErbB3)
1 | huNRG1(S177-F229)(wt)::3x(G4Q)::huFcSEFL2 (Pb): Fc fusion of wild-type NRG1 fragment S177-F229 [reference compound] | 0.34 nM | 0.3 | – | –
2 | huNRG1(S177-Q237)(wt)::GG::huFcSEFL2 (Pb): Fc fusion of wild-type NRG1 fragment S177-Q237 [reference compound] | – | 0.4 and 0.3 | Full | 0.112 nM and 0.15 nM
3 | huNRG1(S177-F229)(NRGE1D) (E47K_D48L_F49D_M50I) huIgG1z SELF2 Fc: Fc fusion of NRG1 variant SEQ ID NO:127 | 0.15 nM | 62.2 | 88.5% | 9.33 nM
4 | huNRG1(S177-F229)(NRGE1D) (E47S_D48S_F49E_M50L) huIgG1z SELF2 Fc: Fc fusion of NRG1 variant SEQ ID NO:128 | 0.37 nM | >10000 | 86.3% | 10000 nM
5 | huNRG1(S177-F229)(NRGE1D) (E47T_D48S_F49L_M50L) hnIgG1z SELF2 Fc: Fc fusion of NRG1 variant SEQ ID NO:129 | 0.39 nM | >10000 | 79.5% | 10000 nM
6 | huNRG1(S177-S228)(wt)((G4E)2:G4)::huFcSEFL2 (Pb): Fc fusion of wild-type NRG1 fragment S177-S228 [reference compound] | 0.084 nM | 0.2643 | 92.6% | 0.0222 nM
7 | huNRG1(S177-F229)(NRGE1C) (E47S_D48T_F49R_M50V) huIgG1z SELF2 Fc: Fc fusion of NRG1 variant SEQ ID NO:123 | 0.19 nM | >10000 | 76% | 10000 nM
8 | huNRG1(S177-Q237)(wt)::3x(G4Q)::huFcSEFL2 (Pb): Fc fusion of wild-type NRG1 fragment S177-Q237 [reference compound] | 0.21 nM | 0.3 | – | 0.07 nM
